Data as given in the Human Domainome abundance scans (Beltran et al. 2025).
± gives the uncertainty stated by the source.

Assay: abundance fitness (aPCA) (normalised: wild type 0, dead -1); higher = more abundant; growth selection in yeast, the domain comes from the species named
Details: Saccharomyces cerevisiae (strain ATCC 204508 / S288c)

| Substance | abundance fitness |
| --- | --- |
| E3 ubiquitin-protein ligase RSP5 Q365Y, P39940 | -0.004 ± 0.1 |
| E3 ubiquitin-protein ligase RSP5 G324F, P39940 | -0.48 ± 0.45 |
| E3 ubiquitin-protein ligase RSP5 E332L, P39940 | -0.459 ± 0.051 |
| E3 ubiquitin-protein ligase RSP5 E338F, P39940 | -0.73 ± 0.14 |
| E3 ubiquitin-protein ligase RSP5 Q339L, P39940 | -0.109 ± 0.051 |
| E3 ubiquitin-protein ligase RSP5 Q339E, P39940 | 0.006 ± 0.054 |
| E3 ubiquitin-protein ligase RSP5 T357W, P39940 | -0.695 ± 0.061 |
| E3 ubiquitin-protein ligase RSP5 T358W, P39940 | -0.626 ± 0.064 |
| E3 ubiquitin-protein ligase RSP5 S328N, P39940 | 0.1 ± 0.071 |
| E3 ubiquitin-protein ligase RSP5 Q365K, P39940 | 0.022 ± 0.064 |
| E3 ubiquitin-protein ligase RSP5 T326R, P39940 | -0.068 ± 0.042 |
| E3 ubiquitin-protein ligase RSP5 F349S, P39940 | -0.83 ± 0.057 |
| E3 ubiquitin-protein ligase RSP5 E344C, P39940 | -0.264 ± 0.097 |
| E3 ubiquitin-protein ligase RSP5 A347L, P39940 | -0.044 ± 0.045 |
| E3 ubiquitin-protein ligase RSP5 Q365C, P39940 | 0.077 ± 0.089 |
| E3 ubiquitin-protein ligase RSP5 T357K, P39940 | -0.393 ± 0.069 |
| E3 ubiquitin-protein ligase RSP5 D361K, P39940 | -0.25 ± 0.06 |
| E3 ubiquitin-protein ligase RSP5 G325P, P39940 | -0.252 ± 0.072 |
| E3 ubiquitin-protein ligase RSP5 G324C, P39940 | 0.204 ± 0.12 |
| E3 ubiquitin-protein ligase RSP5 G324K, P39940 | 0.284 ± 0.14 |
| E3 ubiquitin-protein ligase RSP5 G331P, P39940 | -0.249 ± 0.07 |

| Substance | abundance fitness |
| --- | --- |
| E3 ubiquitin-protein ligase RSP5 A347P, P39940 | -0.115 ± 0.064 |
| E3 ubiquitin-protein ligase RSP5 G331L, P39940 | -0.095 ± 0.046 |
| E3 ubiquitin-protein ligase RSP5 R355N, P39940 | -0.008 ± 0.069 |
| E3 ubiquitin-protein ligase RSP5 T326D, P39940 | 0.094 ± 0.068 |
| E3 ubiquitin-protein ligase RSP5 N353S, P39940 | -0.109 ± 0.061 |
| E3 ubiquitin-protein ligase RSP5 R364Y, P39940 | -0.026 ± 0.086 |
| E3 ubiquitin-protein ligase RSP5 T327S, P39940 | 0.038 ± 0.05 |
| E3 ubiquitin-protein ligase RSP5 H352L, P39940 | -0.235 ± 0.057 |
| E3 ubiquitin-protein ligase RSP5 P362D, P39940 | -0.813 ± 0.097 |
| E3 ubiquitin-protein ligase RSP5 T354A, P39940 | -0.152 ± 0.052 |
| E3 ubiquitin-protein ligase RSP5 H352I, P39940 | -0.046 ± 0.16 |
| E3 ubiquitin-protein ligase RSP5 R346D, P39940 | 0.307 ± 0.057 |
| E3 ubiquitin-protein ligase RSP5 W337H, P39940 | -0.539 ± 0.076 |
| E3 ubiquitin-protein ligase RSP5 E338D, P39940 | -0.022 ± 0.13 |
| E3 ubiquitin-protein ligase RSP5 Q339Y, P39940 | -0.181 ± 0.1 |
| E3 ubiquitin-protein ligase RSP5 V360C, P39940 | -0.018 ± 0.062 |
| E3 ubiquitin-protein ligase RSP5 G325V, P39940 | -0.021 ± 0.045 |
| E3 ubiquitin-protein ligase RSP5 Q366S, P39940 | -0.008 ± 0.077 |
| E3 ubiquitin-protein ligase RSP5 A347D, P39940 | -0.025 ± 0.084 |
| E3 ubiquitin-protein ligase RSP5 T357V, P39940 | -0.247 ± 0.059 |
